For the test, the target named is T1, Recombinant human His-tagged TfR1 (a.a. 89-760) (ACRO Biosystems, CD1-H5243) (human, UniProt P02786 89-760).
T1 construct: range 89-760; Bought protein; Captured and amine-coupled on an NTA chip; also called human TfR1; transferrin receptor 1; not shown: His tag (printed 'Hiss-tagged')
Put plainly: SPR (Biacore), TfR1 captured/coupled on NTA chip, peptide as analyte.

For 14 molecules, Kd results are on record in US20250276073A1 (Bicycle, published 2025).

Starred links: 1 amine or outer side, 2 acyl side, 3 side chain; linkers in the order of their positions; H or OH if unused. Positions of bridges follow the written chain, without caps; N, C: chain ends. Non-standard residues stand in square brackets, D forms with d. No end group written: not given here. TATB = O=C(C[*:1])N1CN(C(=O)C[*:2])CN(C(=O)C[*:3])C1; Phe(4-CONH2) = NC(=O)c1ccc(C[C@H](N)C(=O)O)cc1; Phe(4-COOH) = N[C@@H](Cc1ccc(C(=O)O)cc1)C(=O)O; Gla = N[C@@H](CC(C(=O)O)C(=O)O)C(=O)O; Hyp = O=C(O)[C@@H]1C[C@@H](O)CN1; Tle = CC(C)(C)[C@H](N)C(=O)O

T1 sequence (P02786 89-760 limits assumed): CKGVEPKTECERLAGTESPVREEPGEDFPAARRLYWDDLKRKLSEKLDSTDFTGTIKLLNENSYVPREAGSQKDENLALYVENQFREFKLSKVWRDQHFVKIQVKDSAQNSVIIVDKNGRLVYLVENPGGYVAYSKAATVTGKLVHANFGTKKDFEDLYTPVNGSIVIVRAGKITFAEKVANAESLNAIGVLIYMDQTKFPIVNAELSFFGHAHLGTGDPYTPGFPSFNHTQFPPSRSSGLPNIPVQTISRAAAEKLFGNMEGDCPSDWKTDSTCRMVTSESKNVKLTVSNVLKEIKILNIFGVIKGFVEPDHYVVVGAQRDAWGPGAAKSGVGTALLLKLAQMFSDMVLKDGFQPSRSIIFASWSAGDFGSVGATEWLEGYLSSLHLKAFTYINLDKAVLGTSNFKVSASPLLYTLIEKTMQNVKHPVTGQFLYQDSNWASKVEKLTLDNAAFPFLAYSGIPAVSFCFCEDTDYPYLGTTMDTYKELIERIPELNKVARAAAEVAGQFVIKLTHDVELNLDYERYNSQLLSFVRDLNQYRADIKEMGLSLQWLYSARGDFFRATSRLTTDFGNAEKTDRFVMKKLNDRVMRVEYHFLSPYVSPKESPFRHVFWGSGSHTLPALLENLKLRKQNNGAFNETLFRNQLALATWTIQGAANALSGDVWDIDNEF

B1: BCY23207 (peptide)
peptide: CPXDAYLGCXSYCEPY
modifications: CP[HyP]DAYLGC[tBuGly]SYCEPY: HyP at 3, tBuGly at 10; N-terminal acetyl; C-terminal CONH2; Cys 1, 9, 13 bonded to TATB scaffold
notes: Bicyclic peptide
For B1, the Kd was 0.0077 µM.

B2: BCY23219 (peptide)
peptide: Ac-CP[Hyp]DAYTGC[Tle]SYCEPW-NH2
modifications: linker 1-9-13 via TATB
SMILES: CC(=O)N[C@H]1CSCC(=O)N2CN3CN(C2)C(=O)CSC[C@@H](C(=O)N[C@@H](CCC(=O)O)C(=O)N2CCC[C@H]2C(=O)N[C@@H](Cc2c[nH]c4ccccc24)C(N)=O)NC(=O)[C@H](Cc2ccc(O)cc2)NC(=O)[C@H](CO)NC(=O)[C@H](C(C)(C)C)NC(=O)[C@H](CSCC3=O)NC(=O)CNC(=O)[C@H]([C@@H](C)O)NC(=O)[C@H](Cc2ccc(O)cc2)NC(=O)[C@H](C)NC(=O)[C@H](CC(=O)O)NC(=O)[C@@H]2C[C@@H](O)CN2C(=O)[C@@H]2CCCN2C1=O
notes: Bicyclic peptide
For the molecule B2, the Kd was determined as 0.051 µM.

B3: BCY23216 (peptide)
peptide: Ac-CP[Hyp]EAYLGC[Tle]SYCEPW-NH2
modifications: linker 1-9-13 via TATB
SMILES: CC(=O)N[C@H]1CSCC(=O)N2CN3CN(C2)C(=O)CSC[C@@H](C(=O)N[C@@H](CCC(=O)O)C(=O)N2CCC[C@H]2C(=O)N[C@@H](Cc2c[nH]c4ccccc24)C(N)=O)NC(=O)[C@H](Cc2ccc(O)cc2)NC(=O)[C@H](CO)NC(=O)[C@H](C(C)(C)C)NC(=O)[C@H](CSCC3=O)NC(=O)CNC(=O)[C@H](CC(C)C)NC(=O)[C@H](Cc2ccc(O)cc2)NC(=O)[C@H](C)NC(=O)[C@H](CCC(=O)O)NC(=O)[C@@H]2C[C@@H](O)CN2C(=O)[C@@H]2CCCN2C1=O
notes: Bicyclic peptide
Turning to B3, the Kd stood at 0.158 µM.

B4: BCY23230 (peptide)
peptide: CPXDAYLGCXSYCDPW
modifications: CP[HyP]DAYLGC[tBuGly]SYCDPW: HyP at 3, tBuGly at 10; N-terminal acetyl; C-terminal CONH2; Cys 1, 9, 13 bonded to TATB scaffold
notes: Bicyclic peptide
Take B4: the Kd worked out at 0.015 µM.

B5: BCY23221 (peptide)
peptide: Ac-CP[Hyp]DAYEGC[Tle]SYCEPW-NH2
modifications: linker 1-9-13 via TATB
SMILES: CC(=O)N[C@H]1CSCC(=O)N2CN3CN(C2)C(=O)CSC[C@@H](C(=O)N[C@@H](CCC(=O)O)C(=O)N2CCC[C@H]2C(=O)N[C@@H](Cc2c[nH]c4ccccc24)C(N)=O)NC(=O)[C@H](Cc2ccc(O)cc2)NC(=O)[C@H](CO)NC(=O)[C@H](C(C)(C)C)NC(=O)[C@H](CSCC3=O)NC(=O)CNC(=O)[C@H](CCC(=O)O)NC(=O)[C@H](Cc2ccc(O)cc2)NC(=O)[C@H](C)NC(=O)[C@H](CC(=O)O)NC(=O)[C@@H]2C[C@@H](O)CN2C(=O)[C@@H]2CCCN2C1=O
notes: Bicyclic peptide
For B5, the equilibrium dissociation constant (Kd) is 0.12 µM.

B6: BCY23223 (peptide)
peptide: CP[Hyp]DAYQGC[Tle]SYCEPW-NH2
modifications: linker 1-9-13 via TATB; not fully specified (N-terminus); printed as CP[HyP]DAYQGC[tBuGly]SYCEPW
notes: Bicyclic peptide
Take B6: the Kd is 0.05 µM.

B7: BCY23231 (peptide)
peptide: CPXDAYLGCXSYCXPW
modifications: CP[HyP]DAYLGC[tBuGly]SYC[Gla]PW: HyP at 3, tBuGly at 10, Gla at 14; N-terminal acetyl; C-terminal CONH2; Cys 1, 9, 13 bonded to TATB scaffold
notes: Bicyclic peptide
On to B7, for which the Kd is 0.025 µM.

B8: BCY23182 (peptide)
peptide: CXXDAYLGCXSYCEPW
modifications: C[Cis-HyP][HyP]DAYLGC[tBuGly]SYCEPW: Cis-HyP at 2, HyP at 3, tBuGly at 10; N-terminal acetyl; C-terminal CONH2; Cys 1, 9, 13 bonded to TATB scaffold
notes: Bicyclic peptide
B8: the Kd is 0.022 µM.

B9: BCY23217 (peptide)
peptide: Ac-CP[Hyp][Gla]AYLGC[Tle]SYCEPW-NH2
modifications: linker 1-9-13 via TATB
SMILES: CC(=O)N[C@H]1CSCC(=O)N2CN3CN(C2)C(=O)CSC[C@@H](C(=O)N[C@@H](CCC(=O)O)C(=O)N2CCC[C@H]2C(=O)N[C@@H](Cc2c[nH]c4ccccc24)C(N)=O)NC(=O)[C@H](Cc2ccc(O)cc2)NC(=O)[C@H](CO)NC(=O)[C@H](C(C)(C)C)NC(=O)[C@H](CSCC3=O)NC(=O)CNC(=O)[C@H](CC(C)C)NC(=O)[C@H](Cc2ccc(O)cc2)NC(=O)[C@H](C)NC(=O)[C@H](CC(C(=O)O)C(=O)O)NC(=O)[C@@H]2C[C@@H](O)CN2C(=O)[C@@H]2CCCN2C1=O
notes: Bicyclic peptide
As for B9, the Kd came to 0.117 µM.

B10: BCY23210 (peptide)
peptide: CPXDAYLGCXSYCEPX
modifications: CP[HyP]DAYLGC[tBuGly]SYCEP[pCoPhe]: HyP at 3, tBuGly at 10, pCoPhe at 16; N-terminal acetyl; C-terminal CONH2; Cys 1, 9, 13 bonded to TATB scaffold
notes: Bicyclic peptide
Regarding B10, the Kd was determined as 0.0086 µM.

B11: BCY23187 (peptide)
peptide: Ac-CP[Hyp]DA[Phe(4-COOH)]LGC[Tle]SYCEPW-NH2
modifications: linker 1-9-13 via TATB
SMILES: CC(=O)N[C@H]1CSCC(=O)N2CN3CN(C2)C(=O)CSC[C@@H](C(=O)N[C@@H](CCC(=O)O)C(=O)N2CCC[C@H]2C(=O)N[C@@H](Cc2c[nH]c4ccccc24)C(N)=O)NC(=O)[C@H](Cc2ccc(O)cc2)NC(=O)[C@H](CO)NC(=O)[C@H](C(C)(C)C)NC(=O)[C@H](CSCC3=O)NC(=O)CNC(=O)[C@H](CC(C)C)NC(=O)[C@H](Cc2ccc(C(=O)O)cc2)NC(=O)[C@H](C)NC(=O)[C@H](CC(=O)O)NC(=O)[C@@H]2C[C@@H](O)CN2C(=O)[C@@H]2CCCN2C1=O
notes: Bicyclic peptide
Regarding B11, the Kd was determined as 0.038 µM.

B12: BCY23204 (peptide)
peptide: CPXDAYLGCXSYCEXW
modifications: CP[HyP]DAYLGC[tBuGly]SYCE[HyP]W: HyP at 3 and 15, tBuGly at 10; N-terminal acetyl; C-terminal CONH2; Cys 1, 9, 13 bonded to TATB scaffold
notes: Bicyclic peptide
Consider B12, for which the Kd was 0.009 µM.

B13: BCY23186 (peptide)
peptide: Ac-CP[Hyp]DA[Phe(4-CONH2)]LGC[Tle]SYCEPW-NH2
modifications: linker 1-9-13 via TATB
SMILES: CC(=O)N[C@H]1CSCC(=O)N2CN3CN(C2)C(=O)CSC[C@@H](C(=O)N[C@@H](CCC(=O)O)C(=O)N2CCC[C@H]2C(=O)N[C@@H](Cc2c[nH]c4ccccc24)C(N)=O)NC(=O)[C@H](Cc2ccc(O)cc2)NC(=O)[C@H](CO)NC(=O)[C@H](C(C)(C)C)NC(=O)[C@H](CSCC3=O)NC(=O)CNC(=O)[C@H](CC(C)C)NC(=O)[C@H](Cc2ccc(C(N)=O)cc2)NC(=O)[C@H](C)NC(=O)[C@H](CC(=O)O)NC(=O)[C@@H]2C[C@@H](O)CN2C(=O)[C@@H]2CCCN2C1=O
notes: Bicyclic peptide
On to B13, for which the Kd was determined as 0.027 µM.

B14: BCY23203 (peptide)
peptide: CPXDAYLGCXSXCEPW
modifications: CP[HyP]DAYLGC[tBuGly]S[hTyr]CEPW: HyP at 3, tBuGly at 10, hTyr at 12; N-terminal acetyl; C-terminal CONH2; Cys 1, 9, 13 bonded to TATB scaffold
notes: Bicyclic peptide
Regarding B14, the Kd was 0.283 µM.
